Reference: patent US5543264

Tests used:
[1] = biological target: purified recombinant Ad2 proteinase (rEP) (human adenovirus type 2)
[2] = biological target: (Leu-Arg-Gly-Gly-NH)2-rhodamine
[3] = biological target: purified recombinant Ad2 proteinase (rEP) (human adenovirus type 2); remark: listed apart in the source

Molecule | stimulation of the rate of substrate hydrolysis by rEP with pVIc peptide [1] | also measured
polylysine | < 1 fold | –
polyglutamic acid | 8.9 fold | –
polyaspartic acid | 5 fold | –
purified recombinant Ad2 proteinase (rEP) (enzyme) | – | rate of substrate hydrolysis, fluorescence assay (pmol substrate min^-1) [2]: 25.6
GVQSLKRRRCF [Ad2 pVI-c peptide cofactor (11-amino acid carboxy terminus of pVI)] | – | activation of rEP, rate of hydrolysis of (Leu-Arg-Gly-Gly-NH)2-rhodamine [3]: 2.76 pmol/min
